Results: publication PMC8822174

Assays:
[1] = target: swine fibronectin (swine); experiment: SPR
[2] = target: swine plasminogen (swine); experiment: SPR

Substance: Mycoplasma hyopneumoniae enolase (enzyme)
- Kd [1]: 74.1 nM
- Kd [2]: 62.5 nM

Substance: Mycoplasma bovis enolase (from UniProt A0A454AQL1 1-454) (enzyme)
- Kd [1]: 486 nM
- Kd [2]: 95.2 nM

Substance: Mycoplasma pneumoniae enolase (from UniProt P75189 1-456) (enzyme)
- Kd [1]: > 1000 nM
- Kd [2]: 300 nM
